This note sets out measurements from patent publication US9115383B2, “Fluorescence assay for ghrelin O-acyltransferase activity” (Syracuse University, priority 2012, dated 2015).

The target in this assay is T1, hGOAT (Homo sapiens, UniProt Q96T53).
T1 construct: the gene for hGOAT was cloned with a C-terminal His10 tag into the pFastBacDual vector; His10 (C); made in house; host or cells: Sf9 insect cells, baculovirus (pFastBacDual); used as membrane fraction
T1 sequence (Q96T53 1-435): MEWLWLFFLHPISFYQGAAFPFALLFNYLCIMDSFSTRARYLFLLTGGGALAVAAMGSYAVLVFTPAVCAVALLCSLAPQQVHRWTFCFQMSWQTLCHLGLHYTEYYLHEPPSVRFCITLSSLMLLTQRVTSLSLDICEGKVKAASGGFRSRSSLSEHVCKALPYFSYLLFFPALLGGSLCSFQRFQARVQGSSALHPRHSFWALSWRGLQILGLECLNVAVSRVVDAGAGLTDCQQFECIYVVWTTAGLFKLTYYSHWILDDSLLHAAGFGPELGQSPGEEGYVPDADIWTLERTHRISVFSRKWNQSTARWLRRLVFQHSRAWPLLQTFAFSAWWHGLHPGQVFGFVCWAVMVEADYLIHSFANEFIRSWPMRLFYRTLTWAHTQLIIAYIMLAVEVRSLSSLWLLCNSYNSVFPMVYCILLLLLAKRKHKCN
The experiment in a line: hGOAT-catalysed octanoylation of fluorescent ghrelin peptide substrates, RP-HPLC with fluorescence detection. It counts as biochemical. The following applies: for modification (octanoylation) by hGOAT: RP-HPLC with fluorescence detection, hGOAT-His10 membranes vs mock membranes; for Active with hGOAT?: peptide tested as substrate, hGOAT-His10 membranes in parallel with mock membranes; for activity with hGOAT (substrate selectivity at N-terminus, G1 and S2): ghrelin mimic peptide mutants, FIG. 5. On the procedure: FIG. 3 is a schematic of ghrelin peptide acylation reactions with the fluorescent GSSFLCAcDan substrate, where (A) is a reaction with control/mock membrane fraction; (B) is a time course for GSSFLCAcDan acylation using GOAT membrane fraction, and where the assays were incubated for 1-10 minutes at 37° C. and all reactions were analyzed using reverse-phase HPLC under the following assay conditions: 10 μM peptide, 50 μg membrane protein, 500 μM octanoyl coenzyme A, 100 μM palmitoyl coenzyme A, 50 mM HEPES buffer pH 7.0.
In order to test the activity of peptide substrates, the gene for hGOAT was cloned with a C-terminal His10 tag into the pFastBacDual vector and expressed using standard baculoviral procedures.
With the peptide substrates, the addition of the hydrophobic octanoyl group upon serine acylation at position 3 leads to an increase in retention time in reverse-phase (RP) HPLC. The panel of fluorescent ghrelin peptide substrates was assayed for activity with hGOAT using HPLC coupled with fluorescence detection of the fluorescently labeled peptides. All reactions with hGOAT-His 10 membranes were performed in parallel with mock membranes to account for nonspecific peptide modifications.
An assay for human ghrelin O-acyltransferase activity was performed using hGOAT expressed from insect (Sf9) cells using standard baculoviral methods and a fluorescent 6-mer peptide synthesized by a single step reaction followed by high performance liquid chromatography (HPLC) purification. The assay was performed at room temperature using hGOAT membrane protein, octanoyl-CoA, a fluorescent ghrelin peptide, a buffer, and a detergent. Activity may be measure by detecting the presence of any octanoylation of the ghrelin peptide. For example, the presence of octanoylated ghrelin peptide may be confirmed by HPLC or by using a fluorescent system whose fluorescence will increase as a result of octanoylation of the ghrelin peptide.

No end group written: not given here. *: point of attachment. acrylodan = acrylodan label (AcDan) on Cys, CN(C)c1ccc2cc(C(=O)CC*)ccc2c1; Dansyl = CN(C)c1cccc2c(S(=O)(=O)*)cccc12

As for GSSFLCAcDan (SEQ. ID No. 5) [AcDan-6], the “modification (octanoylation) by hGOAT” value is “yielded the octanoylated peptide with increased retention time” and the “Active with hGOAT?” value is given as “Yes”.

As for “GCAcDanSFLS (SEQ. ID No. 3) (GC(acrylodan)SFLS; ends and bridges not checked) [AcDan-2, ghrelin mimic peptide with acrylodan on cysteine at position 2]”, the “modification (octanoylation) by hGOAT” value is reported as “not modified by hGOAT” and the “Active with hGOAT?” value is “No”.

For [Ac]GSSFLC (SEQ. ID No. 1), the “activity with hGOAT (substrate selectivity at N-terminus, G1 and S2)” value was “low activity”.

For the substance “Dansyl-GSSFLS (SEQ. ID No. 2) (ends and bridges not checked) [Substrate 1-Dansyl, ghrelin mimic peptide with N-terminal dansyl fluorophore]”, the “modification (octanoylation) by hGOAT” value was “not modified by hGOAT” and the “Active with hGOAT?” value is “No”.

With “GSSFCAcDanS (SEQ. ID No. 4) (GSSFC(acrylodan)S; ends and bridges not checked) [AcDan-5, ghrelin mimic peptide with acrylodan on cysteine at position 5]”, the “modification (octanoylation) by hGOAT” value was “yielded the octanoylated peptide with increased retention time” and the “Active with hGOAT?” value is on record as “Yes”.

For the substance “[Ac]SSFLC (SEQ. ID No. 6) (Ac-SSFLC; not fully specified; ends and bridges not checked) [N-terminally acetylated ghrelin mimic peptide lacking G1]”, the “activity with hGOAT (substrate selectivity at N-terminus, G1 and S2)” value is “no activity”.
